Assay in all cases: cell-based or functional assay
The target of assay [1] is myc-L1-CAM (myc-tagged rat L1-CAM variant expressed from pMyc-L1-CAM) (rat (variant of rat L1-CAM)) (UniProt Q05695).
Assay [2] deals with myc-L1-CAM-YF (rat (variant of rat L1-CAM)) (UniProt Q05695).
Assay [3] addresses myc-L1-CAM-YH (rat (variant of rat L1-CAM)) (UniProt Q05695).
Assay [4] concerns the target cell-surface L1-CAM of mouse cerebellar granular neurons (mouse) (UniProt P11627).

The values below come from US20060142189A1.

cell-surface L1-CAM of mouse cerebellar granular neurons (mouse), sequence (P11627 20-1260): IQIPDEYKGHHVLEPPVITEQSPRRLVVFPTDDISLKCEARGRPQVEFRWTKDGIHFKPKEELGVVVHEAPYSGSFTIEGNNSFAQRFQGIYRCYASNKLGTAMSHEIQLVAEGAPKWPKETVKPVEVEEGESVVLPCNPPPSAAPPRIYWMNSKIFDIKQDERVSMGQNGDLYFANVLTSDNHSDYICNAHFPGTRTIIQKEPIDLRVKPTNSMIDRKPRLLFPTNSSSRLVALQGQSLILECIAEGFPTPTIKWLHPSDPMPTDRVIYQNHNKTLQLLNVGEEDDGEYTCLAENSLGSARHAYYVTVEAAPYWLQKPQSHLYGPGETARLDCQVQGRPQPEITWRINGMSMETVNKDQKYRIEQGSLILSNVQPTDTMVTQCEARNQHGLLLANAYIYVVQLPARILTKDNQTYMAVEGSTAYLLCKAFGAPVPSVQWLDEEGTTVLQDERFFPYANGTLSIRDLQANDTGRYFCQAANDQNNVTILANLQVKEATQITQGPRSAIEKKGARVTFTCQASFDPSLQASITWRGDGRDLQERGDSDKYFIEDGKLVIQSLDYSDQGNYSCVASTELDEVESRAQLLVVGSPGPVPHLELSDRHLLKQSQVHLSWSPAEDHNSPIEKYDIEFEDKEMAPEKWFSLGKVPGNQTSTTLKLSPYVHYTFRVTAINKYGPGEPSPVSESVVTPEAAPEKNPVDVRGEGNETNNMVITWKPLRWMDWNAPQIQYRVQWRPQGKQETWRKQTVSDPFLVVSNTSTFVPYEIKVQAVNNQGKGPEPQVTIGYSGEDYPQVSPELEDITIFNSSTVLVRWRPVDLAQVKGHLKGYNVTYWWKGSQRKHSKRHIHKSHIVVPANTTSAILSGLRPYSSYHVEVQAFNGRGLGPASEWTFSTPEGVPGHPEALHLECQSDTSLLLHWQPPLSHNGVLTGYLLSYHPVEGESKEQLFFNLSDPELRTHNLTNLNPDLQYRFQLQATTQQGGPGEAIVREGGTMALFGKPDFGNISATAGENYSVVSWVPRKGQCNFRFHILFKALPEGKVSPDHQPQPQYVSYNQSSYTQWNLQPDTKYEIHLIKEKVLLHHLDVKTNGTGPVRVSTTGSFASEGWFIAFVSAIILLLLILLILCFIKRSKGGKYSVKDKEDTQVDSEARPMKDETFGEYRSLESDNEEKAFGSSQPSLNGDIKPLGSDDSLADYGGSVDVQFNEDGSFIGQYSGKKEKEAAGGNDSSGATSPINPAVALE
myc-L1-CAM (myc-tagged rat L1-CAM variant expressed from pMyc-L1-CAM) (rat (variant of rat L1-CAM)), sequence (Q05695 other isoform, or with tags, fused parts or gaps mutant limits assumed): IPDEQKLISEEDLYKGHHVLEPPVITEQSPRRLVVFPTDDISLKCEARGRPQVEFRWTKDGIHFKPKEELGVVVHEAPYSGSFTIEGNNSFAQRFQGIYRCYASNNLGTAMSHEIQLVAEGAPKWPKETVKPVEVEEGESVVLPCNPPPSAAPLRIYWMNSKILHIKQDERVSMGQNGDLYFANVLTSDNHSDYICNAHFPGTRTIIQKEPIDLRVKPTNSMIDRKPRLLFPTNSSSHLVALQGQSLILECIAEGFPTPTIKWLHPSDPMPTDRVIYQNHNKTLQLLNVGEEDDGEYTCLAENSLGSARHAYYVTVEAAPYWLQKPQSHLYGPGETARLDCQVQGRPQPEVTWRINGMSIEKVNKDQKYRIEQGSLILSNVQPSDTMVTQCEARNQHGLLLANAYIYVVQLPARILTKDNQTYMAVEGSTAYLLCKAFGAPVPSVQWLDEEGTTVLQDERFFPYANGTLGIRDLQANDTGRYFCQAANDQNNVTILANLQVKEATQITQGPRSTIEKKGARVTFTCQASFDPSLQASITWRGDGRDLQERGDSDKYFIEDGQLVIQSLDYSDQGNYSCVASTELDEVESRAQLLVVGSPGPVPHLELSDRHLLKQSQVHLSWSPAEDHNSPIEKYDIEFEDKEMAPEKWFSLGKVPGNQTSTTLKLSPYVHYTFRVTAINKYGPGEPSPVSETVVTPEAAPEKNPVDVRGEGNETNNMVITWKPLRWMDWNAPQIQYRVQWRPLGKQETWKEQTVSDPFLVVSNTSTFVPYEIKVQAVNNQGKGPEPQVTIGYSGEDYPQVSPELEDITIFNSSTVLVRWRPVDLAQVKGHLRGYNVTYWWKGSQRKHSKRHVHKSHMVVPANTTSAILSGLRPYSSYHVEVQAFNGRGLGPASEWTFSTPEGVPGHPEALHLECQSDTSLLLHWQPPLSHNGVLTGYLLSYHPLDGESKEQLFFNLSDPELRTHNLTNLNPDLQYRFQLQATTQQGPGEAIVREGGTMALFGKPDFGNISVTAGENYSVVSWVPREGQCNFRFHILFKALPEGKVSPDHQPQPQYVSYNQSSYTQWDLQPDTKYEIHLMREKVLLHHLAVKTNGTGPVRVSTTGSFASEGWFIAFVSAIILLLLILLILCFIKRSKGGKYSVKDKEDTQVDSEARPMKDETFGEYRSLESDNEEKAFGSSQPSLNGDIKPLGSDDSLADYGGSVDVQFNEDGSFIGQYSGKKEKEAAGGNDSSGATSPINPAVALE
myc-L1-CAM-YF (rat (variant of rat L1-CAM)), sequence (Q05695 other isoform, or with tags, fused parts or gaps mutant): as the sequence (Q05695 other isoform, or with tags, fused parts or gaps mutant limits assumed) above
myc-L1-CAM-YH (rat (variant of rat L1-CAM)), sequence (Q05695 other isoform, or with tags, fused parts or gaps mutant): as the sequence (Q05695 other isoform, or with tags, fused parts or gaps mutant limits assumed) above

For ankyrin B (endogenous in ND-7 cells), in assay [1], the % of trials with retrograde movement of L1-CAM-bound beads (wild-type, untreated ND-7 cells) stood at 61.9%; the % of trials with retrograde transport of 9E10-coated beads (wild-type L1-CAM) came to 68.9%; the % of trials with retrograde transport of L1-CAM-bound beads after NGF treatment (100 ng/mL, 1 hour) turned out to be 100%; the % of trials with stationary behavior of L1-CAM-bound beads (wild-type, untreated ND-7 cells) came to 28.6%. The % of trials with stationary behavior of L1-CAM-bound beads after NGF treatment (100 ng/mL, 1 hour) in assay [1] was 18.2%. Besides, in assay [2], the % of trials with retrograde movement of L1-CAM-bound beads is 37.5% and the % of trials with stationary behavior of L1-CAM-bound beads came to 62.5%. In assay [3], this substance displayed a % of trials with retrograde movement of L1-CAM-bound beads of 92.9% and a % of trials with stationary behavior of L1-CAM-bound beads of 0%.
In assay [4], “chick Ng-CAM (chick homolog of L1-CAM) (from UniProt Q03696 21-1266) (receptor)” came in with a neurite extension of mouse cerebellar granular neurons on Ng-CAM after 24 h, with AP-YF peptide (30 µg/ml) of 32 µm; a neurite extension of mouse cerebellar granular neurons on Ng-CAM after 24 h, with control AP-Scramble peptide of 21 µm; a neurite extension on Ng-CAM with AP-YF above the level with control peptide of 55%.
